For this test, the target named is human fibrinogen (human) (UniProt P02671). The experiment in a line: ELISA.

Turning to “recombinant gain-of-function (GOF) A1(R1450E)A2A3 mutant of VWF (domain or fragment)”, the EC50 came to 63 nM.

“recombinant wild-type A1A2A3 (WT) domains protein of VWF (domain or fragment)” came in with an EC50 of 87 nM.

By EC50 is commonly meant the midpoint of the concentration-response curve. A lower EC50 goes with greater potency.

The values above are taken from article PMC11232922.
